Experimental data from patent US20130303441A1 (YEDA RESEARCH AND DEVELOPMENT, published 2013).
Square brackets hold non-standard residues; d marks the D form. Ends that are not written are not given here. pS = N[C@@H](COP(=O)(O)O)C(=O)O

Molecular target: wild-type (WT) GSK-3β (human, UniProt P49841 1-420, limits assumed)
Assay: cell-based or functional assay

Sequence of wild-type (WT) GSK-3β (P49841 other isoform, or with tags, fused parts or gaps limits assumed): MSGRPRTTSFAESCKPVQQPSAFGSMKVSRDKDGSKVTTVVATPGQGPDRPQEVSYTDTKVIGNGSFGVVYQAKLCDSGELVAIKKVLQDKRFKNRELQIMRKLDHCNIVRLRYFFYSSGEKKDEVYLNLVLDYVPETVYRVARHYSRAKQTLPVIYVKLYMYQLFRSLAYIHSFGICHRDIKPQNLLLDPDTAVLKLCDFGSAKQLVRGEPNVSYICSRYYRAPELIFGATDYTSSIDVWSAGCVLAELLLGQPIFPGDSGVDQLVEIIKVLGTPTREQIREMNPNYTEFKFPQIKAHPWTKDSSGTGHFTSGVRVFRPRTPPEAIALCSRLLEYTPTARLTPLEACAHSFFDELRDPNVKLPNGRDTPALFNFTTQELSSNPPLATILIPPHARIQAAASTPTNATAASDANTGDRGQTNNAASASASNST

## KEAPPAPPQ[pS]PF [L803F, Lys-Glu-Ala-Pro-Pro-Ala-Pro-Pro-Gln-phosphorylated Ser-Pro-Phe]
  IC50, in vitro kinase assay: ~150 µM
  in vitro kinase assays with GSK-3β in the presence of L803 or L803F (200 µM each); inhibition relative to L803: ~50 % relatively to L803
